Earlier results as cited in article PMC10293842 (Proceedings of the National Academy of Sciences of the …, 2023).

System: Omicron BA.1 and BA.2

B1: Adintrevimab (antibody, chains of the INN, looked up, V domains shown)
VH: EVQLVESGGGLVKPGGSLRLSCAASGFTFSSYYMNWVRQAPGKGLEWVSSISEDGYSTYYPDSLKGRFTISRDSAKNSLYLQMNSLRADDTAVYYCARDFSGHTAWAGTGFEYWGQGTLVTVSS
VL: QSVLTQPPSVSGAPGQRITISCTGSSSNIGAGYDVHWYQQLPGTAPKLLIYGSSSRNSGVPDRFSGSKSGTSASLAITGLQAEDEADYYCQSYDSSLSVLYTFGTGTKVTVL
decrease in activity: 20 fold
